Data as given in the DeepSol protein solubility set.

Assay: soluble on expression in E. coli; label from the status in PepcDB or PDB records

Sequence | soluble on expression in E. coli
MVLETTSSRDGEIKLTVDQMLGKLARWIRLMGYDVYYPSGTVPDDEIITKSRSEGRIIITRDYGMYQKYPMSIFEPYDDINDQLRDFIAHFSSRMKDRFMRCPVCNGRLVKLRSKIPEYLRNHRDVYICTGCHKMYWKGSHYRRIYRKIENLRPKGE | soluble
MGSDKIHHHHHHAQQSSGDYYEGLSRKIGFSQMIPPHGLEITYDKTVHIIFPSPVRYVDLGSPNLIAGKADGAENVIRVKATRKHFRSETNMSVITEDGNFYTFNVKYADEPLLLNVEMCDFIHDGESVNHPNNAMEIYLQELAGESPRLVRLIMKSVYMQDKRKVKHVGSKRFGVQYLLKGLYAHGELLYFHTEVKNATHVPFDVDFVTFKIVDKKIVKRTAMQEQVIYPLRAFNYVTRVDGKKNERTVFALPKFTIPDGKKLVVEMYEKQGGRHQSFEVENEDLVRAGTVNELKVR | not soluble
MEDLYPSRQNNQPKILKRKDPVIYTDRSKDNQAPITKEQLDSYEKNGFLQIKNFFSEDEVIDMQKAIFELQDSIKDVASDKVIREPESNDIRSIFHVHQDDNYFQDVANDKRILDIVRHLLGSDVYVHQSRINYKPGFKGKEFDWHSDFETWHVEDGMPRMRAISVSIALSDNYSFNGPLMLIPGSHNYFVSCVGETPDNNYKESLKKQKLGVPDEESLRELTRIGGGISVPTGKAGSVTLFESNTMHGSTSNITPYPRNNLFMVYNSVKNRLVEPFSGGEKRPEYIAVREKQPVYSAVNSAWSHPQFEK | soluble
MGSSHHHHHHSSGLVPRGSHMIMLRIPTRSYCSPSKLIKGVGLSPLKKSLLSKKIKEDIHPSLPVRTRFAPSPTGFLHLGSLRTALYNYLLARNTNGQFLLRLEDTDQKRLIEGAEENIYEILKWCNINYDETPIKQSERKLIYDKYVKILLSSGKAYRCFCSKERLNDLRHSAMELKPPSMASYDRCCAHLGEEEIKSKLAQGIPFTVRFKSPERYPTFTDLLHGQINLQPQVNFNDKRYDDLILVKSDKLPTYHLANVVDDHLMGITHVIRGEEWLPSTPKHIALYNAFGWACPKFIHIPLLTTVGDKKLSKRKGDMSISDLKRQGVLPEALINFCALFGWSPPRDLASKKHECFSMEELETIFNLNGLTKGNAKVDDKKLWFFNKHFLQKRILNPSTLRELVDDIMPSLESIYNTSTISREKVAKILLNCGGSLSRINDFHDEFYYFFEKPKYNDNDAVTKFLSKNESRHIAHLLKKLGQFQEGTDAQEVESMVETMYYENGFSRKVTYQAMRFALAGCHPGAKIAAMIDILGIKESNKRLSEGLQFLQREKK | soluble
MTQPPASTSGIMGTLSSWNLKILQINQLHLVHWNAVKFENFEDAALEENGLAVIGVFLKISETSGSPVSTGRPKPLARKLRPAQKHWVLQSRPFLSSQVQENCKVTYFHRKHWVRIRPLRTTPPSWDYTRICIQREMVPARIRVLREMVPEAWRCFPNRLPLLSNIRPDFSKAPLAYVKRWLWTARHPHSLSAAW | soluble
MVDSDDDGDRRRDKFARERRDEDYRRGGGGFNRYDNKRPGGRRDDYQVKRSRGDDADDSFDPVSRSGNGSDLPTESDSIYSGPLQTFKKFLTSQEDDISEEDAIKKYNEYKTEHRKHQLERFFRAHKDEEWFRLKYKPDDAKKLREAHLENVQKRLQVFNELKEQGQFNKFSLDFGDAEAIIRMLDSVVVKLENGTEDELKAVLAQKLEDESLADIKKDENGNGTEQPKEEPEVKQESGATEELEEGAIEDGTEKSSNKVNIHRTCSVFLRNIPPGLTYEELEGLCKKSPGFLRLALTDGIAERKFYRRGWATFKRDINIKEICWALNAHRLRETDLNAIINRDITRRVRTNNGIASHKQVAINDLKLAVKLTVLYDKKIGLFNAADEADADREMDIRMGVDLVAASTNPLIKEVKSLVPHDVLNDISEEEAELLGVSNGGEAPAEKIRFERDDNILKALDLLIVYLRIVHSIDFYNHGHYAQEDSMPNRCGLIHVRGQPPSGVSITTDEDGALVVPQKFVNDFISGFNSRIEKGLIEKQYVSEEELEKMGKKDGEKEVEAFIQKNTVELAKDKWLCPLSGKKFKGPEFIRKHLQSKHEDKLEEARAEADFFNNYLADAQRPVDCEPKQAPRDDHRGGGGGERGGYGRERDDDRGPGGGGRNSFGGGGYDRRPQFPPRHSLGGRGGGGRYFEDAPRRQPVSYRDLDAPDDIP | not soluble
MPRRNPLWLRLPGSSSPSSSSTTEELRLAALSPYSPNDDISSIPDSLEHSPAKTSDDGSEISRANFSSPSSPSRSPSKKVSWSLFDQVSLSGEEFLLPRRFEAIELNAGTSTRSTSISCSATDLLESDHVTIRKISLQDPATARREYRNIILCRLLPHPNILPISEAYEVDSTLYTVSEQMDGRLSDIVEERLTHFVVAKISHQILAAVAMMHQNGIAHGDLTLSTIYVNTDAELRLSSYGKSDDSSEHLDERYRDDLLSIGAIVSRFLMNEEEMFKFSKSRNLKDIDWRVVLEGSSDSGLLDFNARSLLFQLLEGRQSARDLLRHPYFKSFRAPQHQTVERKHTVVGQKTSDEVLDKLREELQRFNPFNMSEIML | not soluble
VNSVTISVEGMTCNSCVWTIEQQIGKVNGVHHIKVSLEEKNATIIYDPKLQTPKTLQEAIDDMGFDAVIHNIEGR | soluble
MQTDSLSPSPNPVSPVPLNNPTSAPRYGTVIPNRIFVGGIDFKTNESDLRKFFSQYGSVKEVKIVNDRAGVSKGYGFVTFETQEDAQKILQEAEKLNYKDKKLNIGPAIRKQQVGIPRSSIMPAAGTMYLTTSTGYPYTYHNGVAYFHTPEVTSVPPPWPSRSVCSSPVMVAQPIYQQPAYHYQATTQYLPGQWQWSVPQPSASSAPFLYLQPSEVIYQPVEIAQDGGCVPPPLSLMETSVPEPYSDHGVQATYHQVYAPSAITMPAPVMQPEPIKTVWSIHY | soluble
MLIHMKSRKMNLNKLEDGGSWFSRLKQFLQGEPQNQEELVSLLRDAQIRSLINSETLAMIEGAILFSKMRVRDIMLPKNQMVCINKDDDFKHIISIVTQTGHSRFPVTGENSDEVVGILHAKDLLKYQPENMESFDLLDICRQVTFVPESRRLDSLLSEFRSNRNHMAIVVDEYGEVSGFVTIEDIIEQIIGDIEDEFDIDEDAYIKTHEGHCYIIKAHTPIEEFNEQLNADFSDETYDTIGGIVLNKFGYLPQRGEVIIIDDFEFKVLNADSRRIKLLECLDKRSPEKLNSTVEG | not soluble
SHRKFVVQLFAEEWGQYVDLPKGFAVSERCKVRLVPLQIQLTTLGNLTPSSTVFFCCDMQERFRPAIKYFGDIISVGQRLLQGARILGIPVIVTEQYPKGLGSTVQEIDLTGVKLVLPKTKFSMVLPEVEAALAEIPGVRSVVLFGVETHVCIQQTALELVGRGVEVHIVADATSSRSMMDRMFALERLARTGIIVTTSEAVLLQLVADKDHPKFKEIQNLIKASAPESGLLSKV | soluble
MSEKTMRVQDYPLATRCPEHILTPTGKPLTDITLEKVLSGEVGPQDVRISRQTLEYQAQIAEQMQRHAVARNFRRAAELIAIPDERILAIYNALRPFRSSQAELLAIADELEHTWHATVNAAFVRESAEVYQQRHKLRKGS | soluble
MLRNGRLFGHRVETGFPDLPILEVSLRTGVRVRDMDNLKRKQVMSQKEKYKRAVKGDIAYNMMRMWQGAVGPVPEDGLVSPAYVVVKPYAEANSTYFSYLFRTAAYMQEVNKFSRGIVADRNRLYWESFKQMPSLVPPRPEQDQIVTYLRTQDAHIACFIRAKRDLIALLTEQKLRIIDHAVTRGLDASVKLKPSDIEWLGEVPAHWEVKRLKFLAGNITSQTTTKADDEIYLALEHVQSWTGVARPLGGEVEFASTVKRFVADDVLFGKLRPYLAKVTRVVCAGVCVSEFLVLRSRQELILPAYLEQLLRCKRVIDLISSSTAGAKMPRADWNFIGNVRLPIPRKDEQEAILSHIGRETKDLDETIARAEDEIKLIREYRDRLIADAVTGQVDLRGWQPGPDDVVSDDDLAALGDDDAGSSDDEEADA | not soluble
MGSSHHHHHHGKTIFVIVPTNEEQVAFLEALAKQDELNFDWQNPPTEPGQPVVILIPSDMVEWFLEMLKAKGIPFTVYVEEGGSENLYFQGGGGGGRAAGTGDFTAAQRTNTLAVLQAFGRAIPKLGEKWAGNDFCSWEAVLCNAPDVYVSGISPTYAGTLPEMPVNVDYRHVVIKQLDFSEMGPGLSGTLPASWHSMTSLESLSIEKCESISGSVPPEWGSMTSLSVLNLRGTGISGTLPPQWSGMSKARSLQLQDCDLSGSLPSSWSAIPMLASVSLKGNKFCGVCRTRGIRRLVLLWTSRTSTRAATAWLLRTAQRPPLSPPPRQRPPRTSLTFPLRRGPRLSRLPQPALRHRLNPQPPLRHRLNPRPLLPQQTRRLLHQRRSARWMGVRCARGTPLRGARGAVRTTS | not soluble
MMSDRHFQGNRIRLRAPEPEDLEVMFRFENATDVWEMSNTTGPYSRFQLKQYIEQTQNDLFADRQLRLMIENGNRQVVGIVDLCSFDPLHNRAEVGIMVDKSCRRQGIGRNALALLEEHCFRYLGIHQLFAYIAVENLPSRRLFAACGYKESAVLKEWAHTFGGGYTDVLVVQKLNLS | not soluble
MALLHGGQLQQVAKQYNIPPSDWIDVSTGIAPISYPIPIIPLSVWQQLPQQNPDLIAAAQQYYQCSQLMITNGSQAIIKALPALYRQKNAESQDVYLPERGYKEHAHAWKNAGYNLHFYQEFLPEMSEILPNSVLVIINPNNPTGQFFNGQVIAQYQERLKLINGLLVLDEAFIDVVPGNQSYYNQLENSHSLVLRSFGKFFGLAGIRIGFLVANGYWCGAFKELLGPWQINGPAQLIAQHALQDTSWQTRQKDTLTRLRIAQEHMLRQAFPQIILREINGCNLFLTLSFHQQDTAKKLYHLLCQQGVYCRLADEQDTLRFGITTEELLERLTLACRQAYQQLT | not soluble
GMATSTDRTQEIQKLHELIKNIDYGMFTTVDDDGSLHSYPMSKSGDINSEATLWFFTYAGSHKVTEIEHHEQVNVSFSSPEQQRYVSISGTSQLVKDRNKMRELWKPELQTWFPKGLDEPDIALLKVNINQVNYWDSTSSFKPQTISF | soluble
MSLQVQKSFKEQTAYGKLYLVPTPIGNLQDMTFRSIAILKKVDYIAAEDTRNTGLLLKHFDISTRQLSFHEHNAFEKIPDLLKLLKSGNSLAQVSDAGLPSISDPGYDLVRAAIQEDIAVIALPGASAGITALIASGLAPQPHIFYGFLPRKSGQQKSFFEEKKYYPETQIFYESPYRVQETLENILSVYGDRQIVLTRELTKLYEEYQRGNISEILTYIAENPLKGECLLLVSGYDHQEKEQQVSEVELKHLVEALVKEGMKPNQAIKKVAKENDFNRQELYQLYHELQEGHHHHHH | soluble
HYPKALDQLSEDRGYAFSYPTAAPCERLVWSISQSLMEGKEINALFDRINSSTKRDMVTKVSPKAPHTVVLVLGESARPDYMHSYGYPLENTPRLDSLLASGAAVQFDDVVSAKPNTQGSIAAMMSIGESRAGGKWYDDPMLIPLLRSAGYYTFWLSAQEKLGFAVQNVTAIAKLSDSTLFVFRGMDDVVLPNLMQRAEYQNLFEVVHLSGSHVSYQDRYPSEFGKFTSENLPSHHDESKDAVVAHYVNSLYYTDYILGEIERKYANEDAIIIYLSDHGQVLYDAPNNPNLVGHSFSQQGVSIPLFIYLSPSMRTKYPELIPRLQSIRSRRIMTDVLPYAIMGLLGIESPLYNPELDFWGTGYDEHRPRVIYSDDSSLVID | not soluble
MDKLESNKKAPLYQQLYDAILNKVRSGEYQVGEKIPSEEQLMTIYGVSRVTVRNAIKQLVDENILIKRHGKGTFVSMPSYVESMTAGGSFTESGLKMNRKPTTKIISICLKKATGHVAEALGVEKATEVIVIERLRSLDNMPAIFEIDYFRKEDQFMLDLELTDTSLLDILRQYRGVIASYFDNIIEIALADEKLAEALAISEEEALVKINQTVVDNDNQILYFNEQYILSESYKVAIRSYNK | not soluble
MDKQKVALVLSMGGARGIAHIGVIEELLRHNFEITSIAGSSMGAMVGAMYASGKLEECKEWLYSWDKRKMWELADLTLSRDGLVKGDRFIKELKQIIPVMNIEDLPIPYVAMATDIVCDQEVRFDSGNLYDAIRATISIPMLFRPLRKDGMVLIDGGILNPLP | not soluble
